Results reported in article doi:10.1101/2023.02.24.529952.

Target: HCoV-OC43 Nucleocapsid (N) protein (2X-StrepTag tagged) (HCoV-OC43) (UniProt P33469)
Assay: BLI

Chain of HCoV-OC43 Nucleocapsid (N) protein (2X-StrepTag tagged) (HCoV-OC43) (P33469 whole entry): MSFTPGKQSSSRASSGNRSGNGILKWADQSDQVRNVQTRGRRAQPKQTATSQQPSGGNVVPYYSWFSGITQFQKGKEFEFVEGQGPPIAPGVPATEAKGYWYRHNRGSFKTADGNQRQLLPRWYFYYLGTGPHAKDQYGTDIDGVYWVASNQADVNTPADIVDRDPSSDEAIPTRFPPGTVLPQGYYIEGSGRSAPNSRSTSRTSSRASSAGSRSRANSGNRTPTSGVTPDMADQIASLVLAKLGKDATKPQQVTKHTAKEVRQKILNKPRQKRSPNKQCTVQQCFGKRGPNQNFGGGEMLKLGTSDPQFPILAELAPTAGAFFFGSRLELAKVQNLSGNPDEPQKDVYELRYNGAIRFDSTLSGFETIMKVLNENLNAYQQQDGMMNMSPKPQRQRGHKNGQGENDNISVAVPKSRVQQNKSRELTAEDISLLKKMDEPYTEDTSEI

CXCL4 (ligand) was tested, and the Kd was 170 nM, the koff was 0.00088 s⁻¹ and the kon was 5300 M⁻¹ s⁻¹.
